Experimental data reported in patent publication US20230093708A1, “PROTEIN NANOPARTICLE DESIGN AND APPLICATION” (Duke University, priority 2020, published 2023).

Columns and labels:
[1] = Critical micelle concentration by pyrene I1/I3 fluorescence; assay type: physicochemical; conditions: inflection point of sigmoidal fit, triplicate data
Method: Key parameters of interest are the hydrophilicity of the corona-forming block, the hydrophilicity of the core block, the overall length of the co-polypeptide and the ratio of the two blocks. Parameters of evaluation are the size, morphology, stability, and thermoresponsive behavior. All measurements were made in 140 mM NaCl, 10 mM phosphate buffer, 3 mM KCl, pH 7.4 unless otherwise specified. Size was evaluated by the hydrodynamic radios (Rh) and radius of gyration (Rg) by dynamic light scattering (DLS) and static light scattering (SLS) respectively. Rg and Rh can be combined to yield the shape factor ρ=Rg/Rh, which provides a rough indication of the morphology of the scatterer. […] For an elongated scatterer, the shape factor depends upon the aspect ratio. A combination of temperature dependent turbidity and DLS was utilized to determine the phase behavior of the block co-polypeptides. Cryogenic transmission electron microscopy (Cryo-TEM) was utilized to evaluate the morphology and provide crucial insight into the hydration of the core/corona chains. Stability of the assembled nanostructure was determined by a shift in the I1/I3 fluorescent bands of pyrene as described previously.
All of these modifications to the core and corona chains prompted us to measure the critical micelle concentration (CMC) of these micelle constructs. […]

[2] = Temperature-programmed dynamic light scattering; assay type: physicochemical
Method: Temperature-programmed dynamic light scattering experiments were carried out using a Dynapro plate reader (Wyatt Technology; Santa Barbara, Calif.) with samples filtered through 0.45 μm Millex-GV filters. Data were collected at increments of 1° C., and the cumulant fit hydrodynamic radius was taken as the radius. The Tt was defined as the temperature at which aggregates of size hundreds of nanometers were formed.
Each block co-polypeptide was analyzed by dynamic light scattering (DLS) at several temperatures between 4° C. and 37° C. to determine the thermal stability of the micelles, and to determine their radius of hydration (Rh). […] In contrast, RLP40-ELP80 (SEQ ID NO: 84) and RLP40-ELP80-Fn3 (SEQ ID NO: 96) self-assembled into micelles with a Rh of 30 and 32 nm, respectively, between 20-37° C. (FIG. 15).
Therefore, to get a more accurate picture, we monitored the Rh as we slowly cooled the solution. We observed two different overall behaviors. [S]-40-[QHN]-40 (SEQ ID NO: 100) upon cooling underwent a clear unimer to micelle transition at ˜55° C. and a clear micelle to aggregate transition at 28° C. (FIG. 32B). A unimer to micelle transition that is temperature dependent is known as the critical micellization temperature (CMT). As we know from before, this UCST aggregation temperature is dependent on the solution concentration. [S]-80-[QHN]-40 (SEQ ID NO: 101) remained a micelle at the highest temperature we could measure with the instrument. Upon cooling the size of the aggregate increased slightly until a clear aggregate transition at 18° C.

[3] = Static and dynamic light scattering (SLS/DLS) of block co-polypeptides; assay type: physicochemical
How it was run: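 Samples at 10 μM in PBS (140 mM NaCl, 10 mM phosphate, 3 mM KCl, pH 7.4), filtered 0.45 μm, measured at 15 °C over 30°–150° in 5° steps. Rh from cumulant fit of DLS, extrapolated to zero angle. Rg and MW from partial Zimm plots of SLS.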

[4] = Cryo-TEM micelle core size, inter-core spacing and aspect ratio; assay type: physicochemical
How it was run: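 Vitrified 10 μM RLPn-ELP80 (3 s blot, chamber at 15° C., 100% humidity) imaged by cryo-TEM at 80 keV. Core size and spacing measured manually on at least 25 particles; aspect ratio from the longest straight line of a particle and its perpendicular.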

K562+αvβ3 cell line = assay: Flow cytometry cell uptake of Alexa488-labeled micelles; assay type: cell-based; conditions: 10 μM, 37 °C, 2 hours
Method: Approximately 1×10^8 cells were harvested from either K562 or K562+αvβ3 cell lines and resuspended into 1 mL of serum-free medium containing 10 μM of the various Fn3-decorated and control block polypeptides. LM609 antibody was also resuspended at 10 μM in serum-free medium. Micelles were prepared from a mixture of ˜10% Alexa 488 dye-labeled RLP-ELP block co-polypeptides and 90% unlabeled polypeptides on a molar basis. The cells were incubated at 37° C. with the labeled micelles for a specified time, then rinsed with 1 mL of Hanks Buffered Saline Solution (HBSS), collected by centrifugation at 500 RCF for 5 min at 20° C., and resuspended in HBSS+1% BSA. Cells were maintained on ice until they were analyzed by flow cytometry (BD Accuri C5). The cell fluorescence intensity of Alexa 488 (Green) was quantified after gating to remove cellular debris on unstained control samples.
To assess the intracellular uptake of these particles, we used a cell line stably transfected with the αvβ3 integrin. The native cell line, K562, has endogenously low levels of expression of this receptor and therefore serves as the receptor-negative control, and the un-decorated RLPXX-ELP80 micelles serve as ligand-negative controls for each type—size and shape—of micelle. […]

[5] = Table 9, UCST-UCST block co-polypeptides
[6] = Table 8, 15 °C, 140 mM PBS, 10 μM

B1: [S]-40-[QHN]-40: block co-polypeptide of two UCST blocks, (GRGDSPYS)40-(GRGDQPHN)40 (protein)
chain: GRGDSPYSGRGDSPYSGRGDSPYSGRGDSPYSGRGDSPYSGRGDSPYSGRGDSPYSGRGDSPYSGRGDSPYSGRGDSPYSGRGDSPYSGRGDSPYSGRGDSPYSGRGDSPYSGRGDSPYSGRGDSPYSGRGDSPYSGRGDSPYSGRGDSPYSGRGDSPYSGRGDSPYSGRGDSPYSGRGDSPYSGRGDSPYSGRGDSPYSGRGDSPYSGRGDSPYSGRGDSPYSGRGDSPYSGRGDSPYSGRGDSPYSGRGDSPYSGRGDSPYSGRGDSPYSGRGDSPYSGRGDSPYSGRGDSPYSGRGDSPYSGRGDSPYSGRGDSPYSGRGDQPHNGRGDQPHNGRGDQPHNGRGDQPHNGRGDQPHNGRGDQPHNGRGDQPHNGRGDQPHNGRGDQPHNGRGDQPHNGRGDQPHNGRGDQPHNGRGDQPHNGRGDQPHNGRGDQPHNGRGDQPHNGRGDQPHNGRGDQPHNGRGDQPHNGRGDQPHNGRGDQPHNGRGDQPHNGRGDQPHNGRGDQPHNGRGDQPHNGRGDQPHNGRGDQPHNGRGDQPHNGRGDQPHNGRGDQPHNGRGDQPHNGRGDQPHNGRGDQPHNGRGDQPHNGRGDQPHNGRGDQPHNGRGDQPHNGRGDQPHNGRGDQPHNGRGDQPHN
With B1 the “critical micelle concentration (CMC)” value [1] was 3 µM, the “micelle to aggregate transition (UCST aggregation)” value ([2]; upon cooling) was 28 °C and the “unimer to micelle transition (critical micellization temperature, CMT)” value ([2]; upon cooling) was about 55 °C. For the same molecule, the “aggregation number (Nagg)” value [3] was 43, the “hydrodynamic radius (Rh)” value [3] was 28.4 nm and the “radius of gyration (Rg)” value [3] was 35.1 nm. The ρ ([3]; Table 9, Rg/Rh) was 1.2, the Nagg [3, 5] was 43 and the “Rg(nm)” value [3, 5] was 35.1 nm. For the same molecule, the “Rh (nm)” value [3, 5] was 28.4 nm.

B2: RLP40-ELP80: RLP-ELP block co-polypeptide forming spherical micelles (protein)
chain: QYPSDGRGQYPSDGRGQYPSDGRGQYPSDGRGQYPSDGRGQYPSDGRGQYPSDGRGQYPSDGRGQYPSDGRGQYPSDGRGQYPSDGRGQYPSDGRGQYPSDGRGQYPSDGRGQYPSDGRGQYPSDGRGQYPSDGRGQYPSDGRGQYPSDGRGQYPSDGRGQYPSDGRGQYPSDGRGQYPSDGRGQYPSDGRGQYPSDGRGQYPSDGRGQYPSDGRGQYPSDGRGQYPSDGRGQYPSDGRGQYPSDGRGQYPSDGRGQYPSDGRGQYPSDGRGQYPSDGRGQYPSDGRGQYPSDGRGQYPSDGRGQYPSDGRGQYPSDGRGGAGVPGGGVPGAGVPGGGVPGAGVPGGGVPGAGVPGGGVPGAGVPGGGVPGAGVPGGGVPGAGVPGGGVPGAGVPGGGVPGAGVPGGGVPGAGVPGGGVPGAGVPGGGVPGAGVPGGGVPGAGVPGGGVPGAGVPGGGVPGAGVPGGGVPGAGVPGGGVPGAGVPGGGVPGAGVPGGGVPGAGVPGGGVPGAGVPGGGVPGAGVPGGGVPGAGVPGGGVPGAGVPGGGVPGAGVPGGGVPGAGVPGGGVPGAGVPGGGVPGAGVPGGGVPGAGVPGGGVPGAGVPGGGVPGAGVPGGGVPGAGVPGGGVPGAGVPGGGVPGAGVPGGGVPGAGVPGGGVPGAGVPGGGVPGAGVPGGGVPGAGVPGGGVPGAGVPGGGVPGAGVPGGGVPGAGVPGGGVPGAGVPGGGVPGAGVPGGGVPGAGVPGGGVPGAGVPGGGVPGAGVPGGGVPGAGVPGGGVPGAGVPGGGVPGAGVPGGGVPGAGVPGGGVPGAGVPGGGVPGAGVPGGGVPGAGVPGGGVPGAGVPGGGVPGAGVPGGGVPGAGVPGGGVPGAGVPGGGVPGAGVPGGGVPGAGVPGGGVPGAGVPGGGVPGAGVPGGGVPGAGVPGGGVPGAGVPGGGVPGAGVPGGGVPGAGVPGGGVPGAGVPGGGVPGAGVPGGGVPGAGVPGGGVPGAGVPGGGVPGAGVPGGGVPGAGVPGGGVPGAGVPGGGVPGAGVPGGGVPGAGVPGGGVPGAGVPGGGVPGAGVPGGGVPGAGVPGGGVPGAGVPGGGVPGAGVPGGGVPGAGVPGGGVPGAGVPGGGVP
With B2 the “core radius (cryo-TEM)” value [4] was “approximately 12.8 nm”, the “spacing between particle cores (cryo-TEM)” value [4] was 29.5 nm and the “Spacing (nm)” value ([4]; Table 2, inter-core spacing, mean ± standard deviation) was 29.5 ± 4.8 nm. The “Core radius (nm)” value ([4]; Table 2, mean ± standard deviation, 10 μM in 140 mM PBS) was 12.8 ± 1.8 nm, the “Core Diameter (nm) [n = 30]” value [4, 6] was 24.3 ± 2.8 nm and the “Intra-core Spacing (nm) [n = 30]” value [4, 6] was 23.6 ± 4.5 nm. The “Rh (DLS at several temperatures)” value ([2]; between 4 °C and 37 °C, micelles 20-37 °C, 10 μM in 140 mM PBS) was 30 nm, the Nagg ([3]; Table 1, 10 μM in PBS, 15 °C) was 68 and the “Rg(nm)” value ([3]; Table 1, 10 μM in PBS, 15 °C) was 29.9 nm. For the same molecule, the “Rh (nm)” value ([3]; Table 1, 10 μM in PBS, 15 °C) was 33.3 nm, the ρ ([3]; Table 1, shape factor Rg/Rh) was 0.89 and the “cell fluorescence (Geometric Mean±StDev)” value (K562+αvβ3 cell line) was 8686±8787.

B3: [S]-80-[QHN]-40: block co-polypeptide of two UCST blocks, (GRGDSPYS)80-(GRGDQPHN)40 (protein)
chain: GRGDSPYSGRGDSPYSGRGDSPYSGRGDSPYSGRGDSPYSGRGDSPYSGRGDSPYSGRGDSPYSGRGDSPYSGRGDSPYSGRGDSPYSGRGDSPYSGRGDSPYSGRGDSPYSGRGDSPYSGRGDSPYSGRGDSPYSGRGDSPYSGRGDSPYSGRGDSPYSGRGDSPYSGRGDSPYSGRGDSPYSGRGDSPYSGRGDSPYSGRGDSPYSGRGDSPYSGRGDSPYSGRGDSPYSGRGDSPYSGRGDSPYSGRGDSPYSGRGDSPYSGRGDSPYSGRGDSPYSGRGDSPYSGRGDSPYSGRGDSPYSGRGDSPYSGRGDSPYSGRGDSPYSGRGDSPYSGRGDSPYSGRGDSPYSGRGDSPYSGRGDSPYSGRGDSPYSGRGDSPYSGRGDSPYSGRGDSPYSGRGDSPYSGRGDSPYSGRGDSPYSGRGDSPYSGRGDSPYSGRGDSPYSGRGDSPYSGRGDSPYSGRGDSPYSGRGDSPYSGRGDSPYSGRGDSPYSGRGDSPYSGRGDSPYSGRGDSPYSGRGDSPYSGRGDSPYSGRGDSPYSGRGDSPYSGRGDSPYSGRGDSPYSGRGDSPYSGRGDSPYSGRGDSPYSGRGDSPYSGRGDSPYSGRGDSPYSGRGDSPYSGRGDSPYSGRGDSPYSGRGDQPHNGRGDQPHNGRGDQPHNGRGDQPHNGRGDQPHNGRGDQPHNGRGDQPHNGRGDQPHNGRGDQPHNGRGDQPHNGRGDQPHNGRGDQPHNGRGDQPHNGRGDQPHNGRGDQPHNGRGDQPHNGRGDQPHNGRGDQPHNGRGDQPHNGRGDQPHNGRGDQPHNGRGDQPHNGRGDQPHNGRGDQPHNGRGDQPHNGRGDQPHNGRGDQPHNGRGDQPHNGRGDQPHNGRGDQPHNGRGDQPHNGRGDQPHNGRGDQPHNGRGDQPHNGRGDQPHNGRGDQPHNGRGDQPHNGRGDQPHNGRGDQPHNGRGDQPHN
With B3 the “critical micelle concentration (CMC)” value [1] was 0.4 µM, the “micelle to aggregate transition (UCST aggregation)” value ([2]; upon cooling) was 18 °C and the “shape factor / form factor (Rg/Rh)” value [3] was over 1. The ρ ([3]; Table 9, Rg/Rh) was 1.2, the Nagg [3, 5] was 1430 and the “Rg(nm)” value [3, 5] was 75.7 nm. For the same molecule, the “Rh (nm)” value [3, 5] was 62.8 nm.
